The results in this text go back to patent publication US11499162B2, “Plants having increased tolerance to herbicides” (BASF SE, priority 2016, dated 2022).

To fix the notation:
B1: Q71NL88AL92AD128A: mutated TriA variant of SEQ ID NO: 2 (protein)
chain: MQTLSIQHGTLVTMDQYRRVLGDSWVHVQDGRIVALGVHAESVPPPADRVIDARGKVVLPGFINAHTHVNNILLRGGPSHGRQLYDWAFNVAYPGQKAMRPEDVAVAVRLYCAEAVRSGITTINDNAASAIYPGNIEAAMAVYGEVGVRVVYARMFFDRMDGRIQGYVDALKARSPQVELCSIMEETAVAKDRITALSDQYHGTAGGRISVWPAPAITPAVTVEGMRWAQAFARDRAVMWTLHMAESDHDERLHWMSPAEYMECYGLLDERLQVAHCVYFDRKDVRLLHRHNVKVASQVVSNAYLGSGVAPVPEMVERGMAVGIGTDDGNCNDSVNMIGDMKFMAHIHRAVHRDADVLTPEKILEMATIDGARSLGMDHEIGSIETGKRADLILLDLRHPQTTPHHHLAATIVFQAYGNEVDTVLIDGNVVMENRRLSFLPPERELAFLEEAQSRATAILQRANMVANPAWRSL
modifications: Pseudomonas
B2: Q71NL92AM155VF157L: mutated TriA variant of SEQ ID NO: 2 (protein)
chain: MQTLSIQHGTLVTMDQYRRVLGDSWVHVQDGRIVALGVHAESVPPPADRVIDARGKVVLPGFINAHTHVNNILLRGGPSHGRQLYDWLFNVAYPGQKAMRPEDVAVAVRLYCAEAVRSGITTINDNADSAIYPGNIEAAMAVYGEVGVRVVYARVFLDRMDGRIQGYVDALKARSPQVELCSIMEETAVAKDRITALSDQYHGTAGGRISVWPAPAITPAVTVEGMRWAQAFARDRAVMWTLHMAESDHDERLHWMSPAEYMECYGLLDERLQVAHCVYFDRKDVRLLHRHNVKVASQVVSNAYLGSGVAPVPEMVERGMAVGIGTDDGNCNDSVNMIGDMKFMAHIHRAVHRDADVLTPEKILEMATIDGARSLGMDHEIGSIETGKRADLILLDLRHPQTTPHHHLAATIVFQAYGNEVDTVLIDGNVVMENRRLSFLPPERELAFLEEAQSRATAILQRANMVANPAWRSL
modifications: Pseudomonas
B3: Q71NL92AM155TF157L: mutated TriA variant of SEQ ID NO: 2 (protein)
chain: MQTLSIQHGTLVTMDQYRRVLGDSWVHVQDGRIVALGVHAESVPPPADRVIDARGKVVLPGFINAHTHVNNILLRGGPSHGRQLYDWLFNVAYPGQKAMRPEDVAVAVRLYCAEAVRSGITTINDNADSAIYPGNIEAAMAVYGEVGVRVVYARTFLDRMDGRIQGYVDALKARSPQVELCSIMEETAVAKDRITALSDQYHGTAGGRISVWPAPAITPAVTVEGMRWAQAFARDRAVMWTLHMAESDHDERLHWMSPAEYMECYGLLDERLQVAHCVYFDRKDVRLLHRHNVKVASQVVSNAYLGSGVAPVPEMVERGMAVGIGTDDGNCNDSVNMIGDMKFMAHIHRAVHRDADVLTPEKILEMATIDGARSLGMDHEIGSIETGKRADLILLDLRHPQTTPHHHLAATIVFQAYGNEVDTVLIDGNVVMENRRLSFLPPERELAFLEEAQSRATAILQRANMVANPAWRSL
modifications: Pseudomonas
B4: Q71NL92AY93FD128G: mutated TriA variant of SEQ ID NO: 2 (protein)
chain: MQTLSIQHGTLVTMDQYRRVLGDSWVHVQDGRIVALGVHAESVPPPADRVIDARGKVVLPGFINAHTHVNNILLRGGPSHGRQLYDWLFNVAFPGQKAMRPEDVAVAVRLYCAEAVRSGITTINDNAGSAIYPGNIEAAMAVYGEVGVRVVYARMFFDRMDGRIQGYVDALKARSPQVELCSIMEETAVAKDRITALSDQYHGTAGGRISVWPAPAITPAVTVEGMRWAQAFARDRAVMWTLHMAESDHDERLHWMSPAEYMECYGLLDERLQVAHCVYFDRKDVRLLHRHNVKVASQVVSNAYLGSGVAPVPEMVERGMAVGIGTDDGNCNDSVNMIGDMKFMAHIHRAVHRDADVLTPEKILEMATIDGARSLGMDHEIGSIETGKRADLILLDLRHPQTTPHHHLAATIVFQAYGNEVDTVLIDGNVVMENRRLSFLPPERELAFLEEAQSRATAILQRANMVANPAWRSL
modifications: Pseudomonas
B5: Q71NL88AL92AD128G: mutated TriA variant of SEQ ID NO: 2 (protein)
chain: MQTLSIQHGTLVTMDQYRRVLGDSWVHVQDGRIVALGVHAESVPPPADRVIDARGKVVLPGFINAHTHVNNILLRGGPSHGRQLYDWAFNVAYPGQKAMRPEDVAVAVRLYCAEAVRSGITTINDNAGSAIYPGNIEAAMAVYGEVGVRVVYARMFFDRMDGRIQGYVDALKARSPQVELCSIMEETAVAKDRITALSDQYHGTAGGRISVWPAPAITPAVTVEGMRWAQAFARDRAVMWTLHMAESDHDERLHWMSPAEYMECYGLLDERLQVAHCVYFDRKDVRLLHRHNVKVASQVVSNAYLGSGVAPVPEMVERGMAVGIGTDDGNCNDSVNMIGDMKFMAHIHRAVHRDADVLTPEKILEMATIDGARSLGMDHEIGSIETGKRADLILLDLRHPQTTPHHHLAATIVFQAYGNEVDTVLIDGNVVMENRRLSFLPPERELAFLEEAQSRATAILQRANMVANPAWRSL
modifications: Pseudomonas
B6: Q71NL92AY93FD128GQ96T: mutated TriA variant of SEQ ID NO: 2 (protein)
chain: MQTLSIQHGTLVTMDQYRRVLGDSWVHVQDGRIVALGVHAESVPPPADRVIDARGKVVLPGFINAHTHVNNILLRGGPSHGRQLYDWLFNVAFPGTKAMRPEDVAVAVRLYCAEAVRSGITTINDNAGSAIYPGNIEAAMAVYGEVGVRVVYARMFFDRMDGRIQGYVDALKARSPQVELCSIMEETAVAKDRITALSDQYHGTAGGRISVWPAPAITPAVTVEGMRWAQAFARDRAVMWTLHMAESDHDERLHWMSPAEYMECYGLLDERLQVAHCVYFDRKDVRLLHRHNVKVASQVVSNAYLGSGVAPVPEMVERGMAVGIGTDDGNCNDSVNMIGDMKFMAHIHRAVHRDADVLTPEKILEMATIDGARSLGMDHEIGSIETGKRADLILLDLRHPQTTPHHHLAATIVFQAYGNEVDTVLIDGNVVMENRRLSFLPPERELAFLEEAQSRATAILQRANMVANPAWRSL
modifications: Pseudomonas
B7: Q71NL92AY93FD128A: mutated TriA variant of SEQ ID NO: 2 (protein)
chain: MQTLSIQHGTLVTMDQYRRVLGDSWVHVQDGRIVALGVHAESVPPPADRVIDARGKVVLPGFINAHTHVNNILLRGGPSHGRQLYDWLFNVAFPGQKAMRPEDVAVAVRLYCAEAVRSGITTINDNAASAIYPGNIEAAMAVYGEVGVRVVYARMFFDRMDGRIQGYVDALKARSPQVELCSIMEETAVAKDRITALSDQYHGTAGGRISVWPAPAITPAVTVEGMRWAQAFARDRAVMWTLHMAESDHDERLHWMSPAEYMECYGLLDERLQVAHCVYFDRKDVRLLHRHNVKVASQVVSNAYLGSGVAPVPEMVERGMAVGIGTDDGNCNDSVNMIGDMKFMAHIHRAVHRDADVLTPEKILEMATIDGARSLGMDHEIGSIETGKRADLILLDLRHPQTTPHHHLAATIVFQAYGNEVDTVLIDGNVVMENRRLSFLPPERELAFLEEAQSRATAILQRANMVANPAWRSL
modifications: Pseudomonas
B8: Q71G: mutated TriA variant of SEQ ID NO: 2 (protein)
chain: MQTLSIQHGTLVTMDQYRRVLGDSWVHVQDGRIVALGVHAESVPPPADRVIDARGKVVLPGFINAHTHVNGILLRGGPSHGRQLYDWLFNVLYPGQKAMRPEDVAVAVRLYCAEAVRSGITTINDNADSAIYPGNIEAAMAVYGEVGVRVVYARMFFDRMDGRIQGYVDALKARSPQVELCSIMEETAVAKDRITALSDQYHGTAGGRISVWPAPAITPAVTVEGMRWAQAFARDRAVMWTLHMAESDHDERLHWMSPAEYMECYGLLDERLQVAHCVYFDRKDVRLLHRHNVKVASQVVSNAYLGSGVAPVPEMVERGMAVGIGTDDGNCNDSVNMIGDMKFMAHIHRAVHRDADVLTPEKILEMATIDGARSLGMDHEIGSIETGKRADLILLDLRHPQTTPHHHLAATIVFQAYGNEVDTVLIDGNVVMENRRLSFLPPERELAFLEEAQSRATAILQRANMVANPAWRSL
modifications: Pseudomonas
B9: Q71NL92AM155TF157V: mutated TriA variant of SEQ ID NO: 2 (protein)
chain: MQTLSIQHGTLVTMDQYRRVLGDSWVHVQDGRIVALGVHAESVPPPADRVIDARGKVVLPGFINAHTHVNNILLRGGPSHGRQLYDWLFNVAYPGQKAMRPEDVAVAVRLYCAEAVRSGITTINDNADSAIYPGNIEAAMAVYGEVGVRVVYARTFVDRMDGRIQGYVDALKARSPQVELCSIMEETAVAKDRITALSDQYHGTAGGRISVWPAPAITPAVTVEGMRWAQAFARDRAVMWTLHMAESDHDERLHWMSPAEYMECYGLLDERLQVAHCVYFDRKDVRLLHRHNVKVASQVVSNAYLGSGVAPVPEMVERGMAVGIGTDDGNCNDSVNMIGDMKFMAHIHRAVHRDADVLTPEKILEMATIDGARSLGMDHEIGSIETGKRADLILLDLRHPQTTPHHHLAATIVFQAYGNEVDTVLIDGNVVMENRRLSFLPPERELAFLEEAQSRATAILQRANMVANPAWRSL
modifications: Pseudomonas

The data set is classed as biochemical. Particulars: pH 7.2. An outline of the steps: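 Expression: BL21(DE3) Gold, pET24d N-His, pGro7, 0.1 mM IPTG, 25° C, 20 h. Reaction: 25 mM Na phosphate pH 7.2, substrate 1 nM to 10 nM, 30° C. Analysis: UPLC-HR-MS; % degradation vs empty vector.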
On to B1, for which the “Degradation in % of 6-cyclopentyl-N4-(2,3,4,5,6-pentafluorophenyl)-1,3,5-triazine-2,4-diamine” value was 4% and the “Degradation in % of Melamine” value is reported as 0%.

In the case of B2, the “Degradation in % of 6-cyclopentyl-N4-(2,3,4,5,6-pentafluorophenyl)-1,3,5-triazine-2,4-diamine” value was 100% and the “Degradation in % of Melamine” value is on record as 67%.

On to B3, for which the “Degradation in % of 6-cyclopentyl-N4-(2,3,4,5,6-pentafluorophenyl)-1,3,5-triazine-2,4-diamine” value is reported as 98% and the “Degradation in % of Melamine” value was determined as 44%.

B4: the “Degradation in % of 6-cyclopentyl-N4-(2,3,4,5,6-pentafluorophenyl)-1,3,5-triazine-2,4-diamine” value is 74% and the “Degradation in % of Melamine” value came out at 0%.

B5: the “Degradation in % of 6-cyclopentyl-N4-(2,3,4,5,6-pentafluorophenyl)-1,3,5-triazine-2,4-diamine” value amounted to 31% and the “Degradation in % of Melamine” value stood at 0%.

B6: the “Degradation in % of 6-cyclopentyl-N4-(2,3,4,5,6-pentafluorophenyl)-1,3,5-triazine-2,4-diamine” value stood at 99% and the “Degradation in % of Melamine” value is reported as 1%.

Take B7: the “Degradation in % of 6-cyclopentyl-N4-(2,3,4,5,6-pentafluorophenyl)-1,3,5-triazine-2,4-diamine” value was found to be 98% and the “Degradation in % of Melamine” value was determined as 0%.

As to B8, the “Degradation in % of 6-cyclopentyl-N4-(2,3,4,5,6-pentafluorophenyl)-1,3,5-triazine-2,4-diamine” value is 0% and the “Degradation in % of Melamine” value came out at 19%.

On to B9, for which the “Degradation in % of 6-cyclopentyl-N4-(2,3,4,5,6-pentafluorophenyl)-1,3,5-triazine-2,4-diamine” value is reported as 99% and the “Degradation in % of Melamine” value is reported as 52%.
